Consider 1 molecule from patent publication US20210340246A1 (GlaxoSmithKline, published 2021).

In this assay the target is T1, human IL-5 (human, UniProt P05113 20-134).
T1 construct: The IL-5 reagent of the SPR assay is not described further; also called interleukin-5; soluble IL-5
Briefly: standard surface plasmon resonance assays. On the technique in general: SPR reads the build-up and loss of mass on a sensor chip optically.

B1: mepolizumab (monoclonal anti-IL-5 antibody; unstressed composition / control samples) (antibody, human IgG1, kappa)
heavy: not shown
light: not shown
modifications: N-terminal Gln cyclised to pyroglutamate (typically >95.0%); C-terminal K449 clipped (typically >98.0%); N299 N-glycosylated
notes: Batches MDS1 T04L003S and MDS2 T0413010; also called Oxidation Control; Light Exposure Control
As usually defined, the Kd is the constant that tells how readily two partners part at equilibrium. Turning to B1, the Kd is less than 22.9 pM.
